Results on 25 molecules are retold here after patent US20200010818, “EVALUATION AND IMPROVEMENT OF NUCLEASE CLEAVAGE SPECIFICITY” (President and Fellows of Harvard College, published 2020).

The labels stand for the following.
B1: VF2468 11 (dsDNA)
DNA 1: AGCAGCGTCTCCCTTGAGTGATGG
DNA 2: CCATCACTCAAGGGAGACGCTGCT
B2: VF2468 35 (dsDNA)
DNA 1: AGCAGTGTCCTAAGGGGGTGAGGA
DNA 2: TCCTCACCCCCTTAGGACACTGCT
B3: VF2468 18 (dsDNA)
DNA 1: AGCAGAGTCAGACTTGAGTGAGGT
DNA 2: ACCTCACTCAAGTCTGACTCTGCT
B4: VF2468 68 (dsDNA)
DNA 1: AGCACCGTCCCCCTCAGTGAGGC
DNA 2: GCCTCACTGAGGGGGACGGTGCT
B5: VF2468 29 (dsDNA)
DNA 1: AGCAGGGTCAGGGCTGAGTGAGGC
DNA 2: GCCTCACTCAGCCCTGACCCTGCT
B6: VF2468 23 (dsDNA)
DNA 1: AGCAGCGACGCCTGGGAGTGAGGT
DNA 2: ACCTCACTCCCAGGCGTCGCTGCT
B7: VF2468 24 (dsDNA)
DNA 1: AGCAGCGTATCACATGAGTGAGGG
DNA 2: CCCTCACTCATGTGATACGCTGCT
B8: VF2468 79 (dsDNA)
DNA 1: AGCACCGTGGCTTCGAGTGAGGC
DNA 2: GCCTCACTCGAAGCCACGGTGCT
B9: VF2468 28 (dsDNA)
DNA 1: AGCAGCTTCTCCTGGGAGTGAGGG
DNA 2: CCCTCACTCCCAGGAGAAGCTGCT
B10: VF2468 72 (dsDNA)
DNA 1: AGAAACGTCGTGGAGGAGTGAGGG
DNA 2: CCCTCACTCCTCCACGACGTTTCT
B11: VF2468 78 (dsDNA)
DNA 1: AGCAATGTCAAAAAGAGTGAGGC
DNA 2: GCCTCACTCTTTTTGACATTGCT
B12: VF2468 15 (dsDNA)
DNA 1: AGCAACGTCATATTCAGTGAGGA
DNA 2: TCCTCACTGAATATGACGTTGCT
B13: VF2468 19 TTC4 (dsDNA)
DNA 1: AGCAGAGTCTCTGAGAGTGAGGC
DNA 2: GCCTCACTCTCAGAGACTCTGCT
B14: VF2468 73 (dsDNA)
DNA 1: AGCAAAGTCTGTACTGAGTGAGGG
DNA 2: CCCTCACTCAGTACAGACTTTGCT
B15: VF2468 69 MTX2 (dsDNA)
DNA 1: AGCAGCGGCGGCTGCAGTGAGGC
DNA 2: GCCTCACTGCAGCCGCCGCTGCT
B16: VF2468 62 (dsDNA)
DNA 1: TGCAGCGGCGTAGGGGAGTGAGGA
DNA 2: TCCTCACTCCCCTACGCCGCTGCA
B17: VF2468 66 GBF1 (dsDNA)
DNA 1: AGCAACGTCCATAGTGTGTGAGAA
DNA 2: TTCTCACACACTATGGACGTTGCT
B18: VF2468 38 (dsDNA)
DNA 1: AGCATCGTCTTCTGTGAGTGAGTA
DNA 2: TACTCACTCACAGAAGACGATGCT
B19: CCR5-224 25 WBSCR17 (dsDNA)
DNA 1: GTTATCCTCAGCAAACTAAAACTGGAACAG
DNA 2: CTGTTCCAGTTTTAGTTTGCTGAGGATAAC
B20: CCR5-224 16 (dsDNA)
DNA 1: GTCTTCCTGATGCTACCAAACTGGAAAAG
DNA 2: CTTTTCCAGTTTGGTAGCATCAGGAAGAC
B21: CCR5-224 21 (dsDNA)
DNA 1: GTCAACCTCAACACCTACAGACTGCAAAAG
DNA 2: CTTTTGCAGTCTGTAGGTGTTGAGGTTGAC
B22: CCR5-224 14 (dsDNA)
DNA 1: GTCCTGCTCAGCAAAAGAAACTGAAAAAG
DNA 2: CTTTTTCAGTTTCTTTTGCTGAGCAGGAC
B23: CCR5-224 9 (dsDNA)
DNA 1: GTCATCTTCATCAAAAGGAACTGCAAAAC
DNA 2: GTTTTGCAGTTCCTTTTGATGAAGATGAC
B24: CCR5-224 15 KCNB2 (dsDNA)
DNA 1: ATGTTCCTCATCTCCCGAAACTGCAAATG
DNA 2: CATTTGCAGTTTCGGGAGATGAGGAACAT
B25: CCR5-224 11 TACR3 (dsDNA)
DNA 1: GTCATCTTCATCAGCATAAACTGTAAAGT
DNA 2: ACTTTACAGTTTATGCTGATGAAGATGAC

T1 sequence (P14870 other isoform, or with tags, fused parts or gaps, chain 1 of 2): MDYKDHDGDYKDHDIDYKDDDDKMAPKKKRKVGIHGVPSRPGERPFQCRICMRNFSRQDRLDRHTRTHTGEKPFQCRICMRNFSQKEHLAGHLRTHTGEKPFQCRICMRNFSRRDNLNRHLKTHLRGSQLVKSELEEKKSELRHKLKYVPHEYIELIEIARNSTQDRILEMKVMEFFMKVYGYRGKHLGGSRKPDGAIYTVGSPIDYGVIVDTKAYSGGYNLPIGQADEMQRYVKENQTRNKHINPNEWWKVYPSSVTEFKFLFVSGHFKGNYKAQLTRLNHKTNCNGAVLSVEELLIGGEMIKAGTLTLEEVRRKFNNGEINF
T1 sequence (P14870 other isoform, or with tags, fused parts or gaps, chain 2 of 2): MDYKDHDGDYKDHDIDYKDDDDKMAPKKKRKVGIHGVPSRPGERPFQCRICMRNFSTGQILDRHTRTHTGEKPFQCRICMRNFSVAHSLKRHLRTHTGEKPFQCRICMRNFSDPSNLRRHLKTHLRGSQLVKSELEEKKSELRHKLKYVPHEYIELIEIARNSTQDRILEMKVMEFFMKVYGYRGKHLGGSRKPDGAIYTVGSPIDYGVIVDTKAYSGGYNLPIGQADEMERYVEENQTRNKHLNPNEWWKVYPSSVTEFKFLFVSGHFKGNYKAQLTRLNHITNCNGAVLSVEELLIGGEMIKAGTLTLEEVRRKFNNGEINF
Sequence of CCR5-224 ZFN heterodimer (P14870 other isoform, or with tags, fused parts or gaps, chain 1 of 2): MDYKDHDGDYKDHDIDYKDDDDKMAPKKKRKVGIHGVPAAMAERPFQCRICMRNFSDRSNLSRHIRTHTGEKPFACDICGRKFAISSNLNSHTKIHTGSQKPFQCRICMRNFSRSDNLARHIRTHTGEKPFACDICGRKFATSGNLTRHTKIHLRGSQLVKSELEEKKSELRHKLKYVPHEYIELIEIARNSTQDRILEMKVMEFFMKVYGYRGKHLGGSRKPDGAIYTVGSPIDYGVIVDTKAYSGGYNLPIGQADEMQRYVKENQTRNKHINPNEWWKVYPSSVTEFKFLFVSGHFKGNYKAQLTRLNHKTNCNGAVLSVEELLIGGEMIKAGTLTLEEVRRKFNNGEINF
Sequence of CCR5-224 ZFN heterodimer (P14870 other isoform, or with tags, fused parts or gaps, chain 2 of 2): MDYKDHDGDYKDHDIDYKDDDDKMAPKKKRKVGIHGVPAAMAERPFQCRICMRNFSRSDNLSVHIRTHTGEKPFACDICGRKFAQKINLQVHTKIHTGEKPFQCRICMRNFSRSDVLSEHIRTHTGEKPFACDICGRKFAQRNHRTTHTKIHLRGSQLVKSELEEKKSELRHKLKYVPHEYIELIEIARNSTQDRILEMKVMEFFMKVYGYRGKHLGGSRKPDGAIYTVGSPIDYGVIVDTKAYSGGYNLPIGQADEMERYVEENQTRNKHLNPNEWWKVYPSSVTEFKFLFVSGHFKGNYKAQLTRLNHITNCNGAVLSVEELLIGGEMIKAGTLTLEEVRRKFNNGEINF

The first data set concerns the target T1, VF2468 ZFN heterodimer (UniProt P14870;P14870 SEQ:1-324,SEQ:1-324). Description: cell_activity; K562. Conditions: tags: FokI obligate heterodimer; in vitro selection used in vitro-translated protein; chain copies: 2 (stated heterodimer). As for the experimental part: (§1) PCR for 37 potential CCR5-224 substrates and 97 potential VF2468 substrates was performed with Phusion DNA Polymerase (NEB) and primers “[ZFN] […] fwd” and “[ZFN] […] rev” (Table 9) in 1× Phusion HF Buffer supplemented with 3% DMSO. Primers were designed using Primer3³³. The amplified DNA was purified with the Qiagen PCR Purification Kit, eluted with 10 mM Tris-HCl, pH 8.5, and quantified by 1K Chip on a LabChip GX instrument (Caliper Life Sciences) and combined into separate equimolar pools for the catalytically active and empty vector control samples. PCR products were not obtained for 3 CCR5 sites and 7 VF2468 sites, which excluded these samples from further analysis. Multiplexed Illumina library preparation was performed according to the manufacturer's specifications, except that AMPure XP beads (Agencourt) were used for purification following adapter ligation and PCR enrichment steps. Illumina indices 11 (“GGCTAC”) and 12 (“CTTGTA”) were used for ZFN-treated libraries while indices 4 (“TGACCA”) and 6 (“GCCAAT”) were used for the empty vector controls. Library concentrations were quantified by KAPA Library Quantification Kit for Illumina Genome Analyzer Platform (Kapa Biosystems). Equal amounts of the barcoded libraries derived from active- and empty vector-treated cells were diluted to 10 nM and subjected to single read sequencing on an Illumina HiSeq 2000 at the Harvard University FAS Center for Systems Biology Core facility. Sequences were analyzed using Protocol 9 for active ZFN samples and empty vector controls.
In the case of B1, the activity worked out at 0.04 % indels.

In turn, B2 registered an activity of 0.13 % indels.

B3: the activity came out at 0.1 % indels.

As for B4, the activity was determined as 0.28 % indels.

B5: the activity came to 0.2 % indels.

As for B6, the activity amounted to 1.1 % indels.

For B7, the activity was 0.44 % indels.

The molecule B8 registered an activity of 0.029 % indels.

The molecule B9 gave an activity of 0.32 % indels.

Take B10: the activity amounted to 0.042 % indels.

Turning to B11, the activity was found to be 0.15 % indels.

In the case of B12, the activity was determined as 0.06 % indels.

B13 came in with an activity of 0.086 % indels.

B14 gave an activity of 1.3 % indels.

A further data set addresses T1, VF2468 ZFN heterodimer. Description: cell_activity; K562; printed value. Conditions: tags: FokI obligate heterodimer; in vitro selection used in vitro-translated protein; chain copies: 2 (stated heterodimer). The protocol:
as §1
With B15, the activity was 0.3 % indels.

Turning to B16, the activity was 0.085 % indels.

For B17, the activity stood at 0.64 % indels.

The molecule B18 had an activity of 0.082 % indels.

The next data set has as its target CCR5-224 ZFN heterodimer (UniProt P14870; SEQ:1-353,SEQ:1-352). As to the kind of experiment: cell_activity; K562; in vitro selected at 4 nM. Conditions: tags: FokI obligate heterodimer; in vitro selection used in vitro-translated protein; chain copies: 2 (stated heterodimer). As for the experimental part: as §1
The molecule B19 yielded an activity of 0.12 % indels.

In turn, B20 came in with an activity of 0.019 % indels.

B21 gave an activity of 0.06 % indels.

In turn, B22 registered an activity of 0.025 % indels.

For the molecule B23, the activity was 0.035 % indels.

Take B24: the activity was found to be 0.071 % indels.

The molecule B25 displayed an activity of 0.34 % indels.
